Where a chain is given by its changes, count along the chain named. Names and notes keep the numbering of the source. One block for each molecule: values may come before it.
Columns and labels:
[1] = biological target: murine Fas ligand extracellular domain, shorter form, His-tagged (muFasL^S, 134-281) (mouse) (UniProt P41047); assay: non-reducing gel with 60% lowered SDS, FasL immunoblot; his-tagged human and murine FasL forms added onto murine 4T1 cells (also human OVCAR3 cells) for 2 hr in serum-free media; supernatant precipitated and loaded without boiling on non-reducing gels
[2] = biological target: murine Fas ligand extracellular domain, long form, His-tagged (muFasL^L, 103-281) (mouse) (UniProt P41047); assay: as above
[3] = biological target: human Fas ligand extracellular domain, shortest form, His-tagged (HuFasL^ST, 146-281) (human) (UniProt P48023); assay: SEC; freshly purified FasL in PBS, 10 ug loaded on Superdex 200 10/300 GL, 1 ml/min, A280; trimer and monomer peaks
[4] = biological target: Rhesus monkey Fas ligand extracellular domain, shortest form (RhFasL^ST) (Rhesus monkey) (UniProt P63307); assay: as above
[5] = biological target: the molecule itself; assay: as above
[6] = biological target: T1, human Fas ligand extracellular domain, shorter form, His-tagged (HuFasL^S, 134-281) (human), P48023; assay: as above; conditions: remark: other sources report otherwise
T1 chain: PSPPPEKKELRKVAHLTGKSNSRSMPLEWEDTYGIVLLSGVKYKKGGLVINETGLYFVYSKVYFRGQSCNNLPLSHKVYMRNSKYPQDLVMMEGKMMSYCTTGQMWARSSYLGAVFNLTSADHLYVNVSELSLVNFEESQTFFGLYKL

stoichiometry N [1]: 3
Molecule: murine Fas ligand extracellular domain, shorter form, His-tagged (muFasL^S, 134-281) (from UniProt P41047 134-279) (domain or fragment)

stoichiometry N [2]: 3
Molecule: murine Fas ligand extracellular domain, long form, His-tagged (muFasL^L, 103-281) (from UniProt P41047 103-279) (domain or fragment)

stoichiometry N [3]: 3
Molecule: human Fas ligand extracellular domain, shortest form, His-tagged (HuFasL^ST, 146-281) (from UniProt P48023 146-281) (domain or fragment)

The next lines start with the molecule.

Molecule: Rhesus monkey Fas ligand extracellular domain, shortest form (RhFasL^ST) (from UniProt P63307 146-280) (domain or fragment)
stoichiometry N [4]: 3

B1: Rhesus monkey Fas ligand extracellular domain, shorter form (RhFasL^S, 134-281) (domain or fragment, UniProt P63307 134-280, looked up)
chain: SPPPEKKEQRKVAHLTGKPNSRSMPLEWEDTYGIVLLSGVKYKKGGLVINETGLYFVYSKVYFRGQSCTNLPLSHKVYMRNSKYPQDLVMMEGKMMSYCTTGQMWAHSSYLGAVFNLTSADHLYVNVSELSLVNFEESQTFFGLYKL
notes: Rhesus monkey Fas ligand (FasL), residues 134-281, carries P153; source: Freestyle CHO-S cells, transfected, purified from supernatant (his-TRAP)
stoichiometry N [5]: 3

B2: human Fas ligand extracellular domain, shorter form, His-tagged (HuFasL^S, 134-281), P48023 134-281 (domain or fragment)
chain: T1 chain
stoichiometry N [6]: 3

B3: human Fas ligand extracellular domain, shorter form, S153P (HuFasL-S153P^S, 134-281) (domain or fragment, UniProt P48023 134-281, looked up)
chain: T1 chain with S20P
notes: human Fas ligand (FasL), residues 134-281 with S153P; The substitution was engineered here; source: Freestyle CHO-S cells, transfected, purified from supernatant (his-TRAP)
stoichiometry N [5]: 3

B4: human Fas ligand extracellular domain, long form, His-tagged (HuFasL^L, 103-281) (domain or fragment, UniProt P48023 103-281, looked up)
chain: QLFHLQKELAELRESTSQMHTASSLEKQIGHPSPPPEKKELRKVAHLTGKSNSRSMPLEWEDTYGIVLLSGVKYKKGGLVINETGLYFVYSKVYFRGQSCNNLPLSHKVYMRNSKYPQDLVMMEGKMMSYCTTGQMWARSSYLGAVFNLTSADHLYVNVSELSLVNFEESQTFFGLYKL
notes: human Fas ligand (FasL, CD95L), entire extracellular domain, residues 103-281 (Q103-L281), carries S153; C-terminal His-tag versions were poorly expressed and not functional; N-terminal His-tag proteins were used; Mixture of trimer and monomer by SEC; also called Long^(L); huFasL^WT; source: Freestyle CHO-S cells, transfected, purified from supernatant (his-TRAP); not shown: His tag, N-terminal, …
stoichiometry N [5]: 3

B5: human Fas ligand extracellular domain, long form, S153P (HuFasL-S153P^L, 103-281) (domain or fragment, UniProt P48023 103-281, looked up)
chain: B4 chain with S51P
notes: human Fas ligand (FasL), residues 103-281 with S153P; The substitution was engineered here; source: Freestyle CHO-S cells, transfected, purified from supernatant (his-TRAP)
stoichiometry N [5]: 3

B6: Rhesus monkey Fas ligand extracellular domain, long form, His-tagged (RhFasL^L, 103-281) (domain or fragment, UniProt P63307 103-280, looked up)
chain: LFHLQKELAELRESTSQKHTASSLEKQIGHPSPPPEKKEQRKVAHLTGKPNSRSMPLEWEDTYGIVLLSGVKYKKGGLVINETGLYFVYSKVYFRGQSCTNLPLSHKVYMRNSKYPQDLVMMEGKMMSYCTTGQMWAHSSYLGAVFNLTSADHLYVNVSELSLVNFEESQTFFGLYKL
notes: Rhesus monkey Fas ligand (FasL), entire extracellular domain, residues 103-281, carries P153; source: Freestyle CHO-S cells, transfected, purified from supernatant (his-TRAP); not shown: His tag, N-terminal, kept
stoichiometry N [5]: 3
